From patent US5885831

Key:
[1] = target: LexA-TIM1 (Drosophila melanogaster); experiment: yeast two-hybrid, β-galactosidase activity of liquid cultures, LexA-TIM1, 28 C
[2] = target: LexA-TIM1 (Drosophila melanogaster); experiment: yeast two-hybrid, β-galactosidase activity of liquid cultures, LexA-TIM1, 35 C
[3] = target: LexA-TIM1 (Drosophila melanogaster); experiment: yeast two-hybrid, β-galactosidase activity of liquid cultures, LexA-TIM1, 22 C

Question: For VP16-PER^L233-685 (from UniProt P07663), which fold change of the TIM interaction signal (β-galactosidase activity) against the wild type PER fragment [1] is on record?
Answer: Its fold change of the TIM interaction signal (β-galactosidase activity) against the wild type PER fragment is 1.8 fold higher.

Question: What about the fold change of the TIM interaction signal (β-galactosidase activity) against the wild type PER fragment [2] of the same substance?
Answer: The fold change of the TIM interaction signal (β-galactosidase activity) against the wild type PER fragment was 4.8 fold lower.

Question: And the fold change of the TIM interaction signal (β-galactosidase activity) against the wild type PER fragment [3]?
Answer: The fold change of the TIM interaction signal (β-galactosidase activity) against the wild type PER fragment was 3.4 fold higher.
